US20250122278A1, “ANTI-INTERLEUKIN-9 ANTIBODY AND USE THEREOF” (GUANGDONG KEGUANDA PHARMACEUTICAL TECHNOLOGY CO., LTD., priority 2022, published 2025)

Legend:
[1] = molecular target: T1, IL-9-His recombinant protein (UniProt P15248 19-144); experiment: ELISA on IL-9-His, 293F culture supernatant, antibody concentration 1 µg/mL
T1 construct: range 19-144; used as coating antigen in the ELISAs; also called IL9 (19-144)-His; not shown: His tag, C-terminal by the vector name

[2] = molecular target: T1, IL-9-His recombinant protein; experiment: ELISA on IL-9-His, 293F culture supernatant, antibody concentration 2 µg/mL
Protocol: (§3) ELISA was conducted according to a standard protocol to determine the affinity of a purified antibody for the IL-9-His recombinant protein. In short, the IL-9-His recombinant protein was diluted with sterile PBS and added at 100 μL/well to a 96-well plate. The plate was incubated at 4° C. overnight and then blocked with a blocking buffer. 100 μL of a purified anti-IL-9 antibody serially diluted was added to the plate, and the plate was incubated for 1 h at room temperature. PBS was added to a control well. The plate was washed with PBST 3 times. Then 100 μL of horseradish peroxidase (HRP)-labeled anti-mouse IgG H&L (BIODRAGON, CAT #BF03001) was added, and the plate was incubated for 1 h at room temperature. The plate was washed with PBST 3 times. Then a chromogenic reaction was conducted with a 3,3′,5,5′-tetramethylbenzidine (TMB) chromogenic solution at room temperature. An OD value in each well was read by a microplate reader. Data was processed with PRISM GraphPad, and curves were plotted. The EC₅₀ value for each candidate antibody was calculated.

[3] = molecular target: T1, IL-9-His recombinant protein; experiment: ELISA on IL-9-His, 293F culture supernatant, antibody concentration 1 µg/mL (second well)
Protocol: as §3

[4] = molecular target: T1, IL-9-His recombinant protein; experiment: ELISA on IL-9-His, 293F culture supernatant, antibody concentration 2 µg/mL (second well)
Protocol: as §3

[5] = molecular target: T2, biotin-conjugated IL-9-Fc (Biotin-IL-9-Fc) (UniProt P15248 19-144, biotin-conjugated (sites not given)); experiment: flow cytometry blocking assay (IL-9-IL-9R blocking determination): serially diluted chimeric antibody against the binding of Biotin-IL-9-Fc to 293-IL-9R cells (IL-9R), MFI; unit taken from the x axis, the table prints none
T2 construct: range 19-144; also called Fc-IL-9 recombinant protein; Fc-IL-9; not shown: Fc tag (Fc2 in the vector name pLVX-Fc2-IL9 (19-144)-Puro)

[6] = molecular target: T3, IL-9 (Homo sapiens, UniProt P15248); experiment: ELISA binding of humanized antibodies to the target antigen; conditions: ELISA of culture supernatant of 293F cells, control chimeric antibody CA1
T3 construct: pcDNA3.4-IL9 (19-144)-His (P15248); His (C); made in house; host or cells: 293F cells (transient transfection)
Protocol: ELISA was conducted according to a standard protocol to determine the affinity of a purified antibody for the IL-9-His recombinant protein. In short, the IL-9-His recombinant protein was diluted with sterile PBS and added at 100 μL/well to a 96-well plate. The plate was incubated at 4° C. overnight and then blocked with a blocking buffer. 100 μL of a purified anti-IL-9 antibody serially diluted was added to the plate, and the plate was incubated for 1 h at room temperature. PBS was added to a control well. The plate was washed with PBST 3 times. Then 100 μL of horseradish peroxidase (HRP)-labeled anti-mouse IgG H&L (BIODRAGON, CAT #BF03001) was added, and the plate was incubated for 1 h at room temperature. The plate was washed with PBST 3 times. Then a chromogenic reaction was conducted with a 3,3′,5,5′-tetramethylbenzidine (TMB) chromogenic solution at room temperature. An OD value in each well was read by a microplate reader. Data was processed with PRISM GraphPad, and curves were plotted. The EC50 value for each candidate antibody was calculated.
Humanized antibody expression vectors carrying a designed heavy-chain or light-chain sequence were transiently transfected into 293F cells in pairs, and then a resulting culture supernatant was collected. According to a standard protocol (with reference to part 5.1 in Example 1), with a human-mouse chimeric antibody CA1 constructed with VH and VL of the original murine antibody as a control, the binding of a humanized antibody to a target antigen was detected by ELISA. The method for ELISA was the same as described in 5.1 of Example 1. […] In the follow-up experiments, the four combinations of VH1−VL2, VH1−VL4, VH2−VL4, and VH3−VL4 (hu.CA1 to hu.CA4) were taken as examples for antibody purification and function testing. […]

[7] = molecular target: T4, IL-9 antigen protein (Homo sapiens, UniProt P15248); experiment: ForteBio (BLI) affinity detection; assay type: binding; conditions: antibody immobilized on Protein A sensor, antigen 7.81-125 nM
T4 construct: pcDNA3.4-IL9 (19-144)-His (P15248) and pLVX-Fc2-IL9 (19-144)-Puro; made in house; host or cells: 293F cells (transient transfection)
Protocol: The affinity of a humanized antibody was detected by ForteBio (BLI). The chimeric (as a control) and humanized antibodies were immobilized with a Protein A sensor (SARTORIUS, Cat #18-5010) at an immobilization height of about 1 nm. An antigen protein sample was serially diluted with PBS to 125 nM, 62.5 nM, 31.25 nM, 15.625 nM, 7.81 nM, and 0 nM. An affinity detection procedure was as follows: equilibration for 60 s, binding for 180 s, and dissociation for 180 s.

[8] = system: bleomycin mouse model of pulmonary fibrosis; experiment: Bleomycin mouse pulmonary fibrosis model; assay type: in vivo
Protocol: (§1) 6 to 8-week-old male C57BL/6J mice (purchased from Guangdong Sijiajingda Biotechnology Co., Ltd., license No.: SCXK (Guangdong) 2020-0052) were grouped, modeled, and administered according to the protocols shown in Tables 6 and 7 below. The modeling with bleomycin (Nippon Kayaku, 15 mg powder, and dose: 1.5 mg/kg) and silica (SiO2, sigma, USA, S5631-500 g, and dose: 2.5 mg/mouse) was started on day 0 (DO). The administration was started on day 1 (D1), and normal saline was adopted as a solvent for an antibody. A positive drug pirfenidone (Beijing Kangdini Pharmaceutical Co., Ltd., 100 mg capsule) was adopted in a positive control group, and the humanized antibody hu.CA1 (VH1−VL2) of the present application was adopted in an anti-IL-9 antibody group.
(§2) A body weight of each mouse was measured every day. After the bleomycin model group was administered for 21 d and the silica model group was administered for 30 d, mice were sacrificed to collect lung tissues. The lung tissues each were stained to detect pathological changes in the lung tissues. Specifically, a degree of alveolar inflammation was detected through HE staining (an HE staining kit was purchased from Shanghai Beyotime Biotechnology, C0105M). A degree of pulmonary fibrosis was detected through Masson staining (a Masson staining kit was purchased from Nanjing Jiancheng Institute of Biological Engineering, D026-1-2). Scoring criteria for the HE staining and Masson staining were shown in Table 8 and Table 9 below, respectively (as shown in references: Matute-Bello G, Downey G, Moore B B, et al. An official American Thoracic Society workshop report: features and measurements of experimental acute lung injury in animals. Am J Respir Cell Mol Biol. 2011; 44 (5): 725-738. doi: 10.1165/rcmb.2009-0210ST and Lee Hyun Ju, Goo Jin Mo, Kim Na Ra et al. Semiquantitative measurement of murine bleomycin-induced lung fibrosis in in vivo and postmortem conditions using microcomputed tomography: correlation with pathologic scores—initial results. [J].Invest Radiol, 2008, 43: 453-60).

[9] = system: silica mouse model of pulmonary fibrosis; experiment: Silica mouse pulmonary fibrosis model; assay type: in vivo, C57BL/6J mice
Protocol: as §1, §2

[10] = molecular target: T1, IL-9-His recombinant protein; experiment: BLI (ForteBio), antibody on Protein A sensor, antigen 7.81-125 nM in solution
Text: The affinity of a humanized antibody was detected by ForteBio (BLI). […] An affinity detection procedure was as follows: equilibration for 60 s, binding for 180 s, and dissociation for 180 s.

[11] = molecular target: T1, IL-9-His recombinant protein; experiment: ELISA on coated IL-9-His, OD450; unit taken from the x axis, the table prints none
Protocol: as §3

[12] = molecular target: T2, biotin-conjugated IL-9-Fc …; experiment: flow cytometry blocking assay (IL9-IL9R blocking determination): serially diluted antibody against the binding of Biotin-IL-9-Fc to 293-IL-9R cells (IL-9R), MFI; unit taken from the x axis, the table prints none

T1 sequence (P15248 19-144 limits assumed, form in doubt): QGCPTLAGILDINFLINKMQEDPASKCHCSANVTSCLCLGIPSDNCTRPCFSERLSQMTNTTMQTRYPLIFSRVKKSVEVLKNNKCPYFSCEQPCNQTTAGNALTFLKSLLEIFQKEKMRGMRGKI
T4 sequence (P15248 19-144): as the sequence (P15248 19-144 limits assumed, form in doubt) above
T2 sequence (P15248 19-144 limits assumed, form in doubt): as above
T3 sequence (P15248 19-144): as the sequence (P15248 19-144 limits assumed, form in doubt) above

Molecule | binding to IL-9 [6] | Koff [7] [s⁻¹] | Kon [7] [M⁻¹ s⁻¹] | Kd [10] [nM] | koff [10] [s⁻¹] | kon [10] [M⁻¹ s⁻¹] | EC50 [11] [µg/mL] | EC50 [12] [µg/mL] | other results
22-F2-E9-C8 chimeric antibody (CA4) (antibody, V domains shown) VH: EVQVVESGPGLVKPSQSLSLTCSVTGSSFTSGYYWNWIRQFPGNKLEWMGYIRYDGSNNYNPSLKNRISITRDTSKNQFFLKLNSVTSEDTATYYCASYGSSYDAMDYWGQGTSVTVSS VL: DIQLTQPPASLSASVGETVTITCRASENIDSYLAWYQQKQGKSPQLLVYAATLLADGVPSRFSGSGSGTQYSLKINSLQSEDVARYYCQHYYSTPWTFGGGTKLELK |  |  |  |  |  |  |  |  | ELISA OD450 [1]: 2.63 OD450; ELISA OD450 [2]: 2.45 OD450; ELISA OD450 [3]: 2.59 OD450; ELISA OD450 [4]: 2.43 OD450; EC50 [5]: 2.96 µg/mL
humanized antibody VH1-VL2 (hu.CA1) (antibody, V domains shown, IgG1 / kappa by the vectors pcDNA3.4-IgG1 and pcDNA3.4-IgKc; also called humanized VH1-VL2 antibody) VH: EVQLKQSGAEVMKPGASVKVSCKATGYTFTGYWIEWVRLAPGHGLEWMGEILPGSGSTNYNQKFQGRVTFTADTSINTAYMELSRLRSDDTAIYYCARRTYYYGIPEDYWGQGTLVTVSS VL: DIVMTQSQKFFSTSTGDRVTITCRASQNVGTNVAWHQQKPGQSPKPLIYSASYRYSGVPSRFTGSGSGTDFTLTISNLQSEDFAEYFCQQYNSYPLTFGAGTKLEIK | bind to IL-9 with high affinity | 0.002535 | 1.066e+06 | 2.38 | 0.00253 | 1.07e+06 | 0.035 | 5.89 | collagen fibers and fibrosis regions of lung tissues (Masson staining) ([8]; bleomycin model, 21 d): significantly reduced; inflammation score compared with pirfenidone group ([8]; bleomycin model, 21 d, HE staining): slightly lower than the pirfenidone group; inflammation score ([8]; bleomycin model, 21 d, HE staining, FIG. 9B): significantly reduce an inflammation score; fibrosis score ([8]; bleomycin model, 21 d, Masson staining, FIG. 10B): significantly reduce a fibrosis score; lung tissue structures (HE staining) ([8]; bleomycin model, 21 d, antibody 100 μg i.p. every other day, pirfenidone 300 mg/kg intragastric daily): improved; body weights over time ([8]; bleomycin model, compared with negative and positive control groups, FIG. 8A): changed in a same trend; safety ([8]; conclusion from body weights in bleomycin and silica models): excellent safety; collagen fibers and fibrosis regions of lung tissues (Masson staining) ([9]; 30 d): significantly reduced; inflammation score ([9]; 30 d, HE staining, FIG. 11B): significantly reduce an inflammation score; fibrosis score ([9]; 30 d, Masson staining, FIG. 12B): reduce a fibrosis score; lung tissue structures (HE staining) ([9]; 30 d, antibody 100 μg i.p. every other day, pirfenidone 300 mg/kg intragastric daily): improved; body weights over time ([9]; compared with negative and positive control groups, FIG. 8B): changed in a same trend
CA1: human-mouse chimeric IgG1/kappa antibody with VH and VL of murine 38-D8-C7-G9 (antibody, V domains shown) VH: EVQLKQSGAELMKPGASVKLSCKATGYTFTGYWIEWVKLRPGHGLEWIGEILPGSGSTNYNEEFKGKATFTADTSSNTAYMQLNSLTTEDSAIYYCARRTYYYGIPEDYWGQGTSVTVSS VL: DIVMTQSQKFMSTSVGDRVSVTCKASQNVGTNVAWHQQKPGQSPKPLIYSASYRYSGVPDRFTGSGSGTDFTLTISNVQSEDLAEYFCQQYNSYPLTFGAGTKLELK |  | 0.0009336 | 2.13e+06 |  |  |  |  |  | 
humanized antibody VH1-VL4 (hu.CA2) (antibody, V domains shown, IgG1 / kappa by the vectors pcDNA3.4-IgG1 and pcDNA3.4-IgKc; also called humanized VH1-VL4 antibody) VH: EVQLKQSGAEVMKPGASVKVSCKATGYTFTGYWIEWVRLAPGHGLEWMGEILPGSGSTNYNQKFQGRVTFTADTSINTAYMELSRLRSDDTAIYYCARRTYYYGIPEDYWGQGTLVTVSS VL: DIVMTQSPKFLSASVGDRVTITCKASQNVGTNVAWHQQKPGQSPKPLIYSASYRYSGVPSRFTGSGSGTDFTLTISNLQPEDFAEYFCQQYNSYPLTFGAGTKLEIK | bind to IL-9 with high affinity | 0.002206 | 1.165e+06 | 1.89 | 0.00221 | 1.16e+06 | 0.0127 | 8.18 | 
humanized antibody VH2-VL4 (hu.CA3) (antibody, V domains shown, IgG1 / kappa by the vectors pcDNA3.4-IgG1 and pcDNA3.4-IgKc) VH: EVQLVQSGAEVMKPGASVKVSCKATGYTFTGYWIEWVRLAPGQGLEWMGEILPGSGSTNYNQKFQGRVTFTADTSTNTAYMELSSLRSEDTAIYYCARRTYYYGIPEDYWGQGTLVTVSS VL: DIVMTQSPKFLSASVGDRVTITCKASQNVGTNVAWHQQKPGQSPKPLIYSASYRYSGVPSRFTGSGSGTDFTLTISNLQPEDFAEYFCQQYNSYPLTFGAGTKLEIK |  |  |  |  |  |  | 0.0329 | 11.7 | 
humanized antibody VH3-VL4 (hu.CA4) (antibody, V domains shown, IgG1 / kappa by the vectors pcDNA3.4-IgG1 and pcDNA3.4-IgKc) VH: EVQLVQSGAEVMKPGASVKVSCKATGYTFTGYWIEWVRLAPGQGLEWMGEILPGSGSTNYNQKLQGRVTFTADTSTNTAYMELRSLRSDDTAIYYCARRTYYYGIPEDYWGQGTLVTVSS VL: DIVMTQSPKFLSASVGDRVTITCKASQNVGTNVAWHQQKPGQSPKPLIYSASYRYSGVPSRFTGSGSGTDFTLTISNLQPEDFAEYFCQQYNSYPLTFGAGTKLEIK |  |  |  |  |  |  | 0.0323 | 11.3 | 
